4 molecules from patent US20240101682A1 (PINETREE THERAPEUTICS, published 2024) can be followed below.

Where only a bound is given, the exact number is not on record here.

The target in assay [1] is T1, recombinant human NRP1, biotinylated (human, UniProt O14786-2 22-644, limits assumed, biotinylated (site not stated)).
T1 construct: also called huNRP1; recombinant NRP1
In words: BLI (Octet Red 96), biotinylated antigen on streptavidin sensor, bsAb in solution, bivalent format. (BLI is a label-free optical method that tracks binding on a fibre tip over time.)

The target in assay [2] is T2, recombinant human EGFR, biotinylated (human, UniProt P00533 25-645, biotinylated (site not stated)).
T2 construct: also called huEGFR; recombinant huEGFR
Described as above.

B1: bsAb with heavy chain polypeptide SEQ ID NO: 1 and light chain SEQ ID NO: 12 (control) (bispecific antibody, human IgG2, kappa)
heavy: QVQLQESGPGLVKPSETLSLTCTVSGGSVSSGDYYWTWIRQSPGKGLEWIGHIYYSGNTNYNPSLKSRLTISIDTSKTQFSLKLSSVTAADTAIYYCVRDRVTGAFDIWGQGTMVTVSSASTKGPSVFPLAPCSRSTSESTAALGCLVKDYFPEPVTVSWNSGALTSGVHTFPAVLQSSGLYSLSSVVTVPSSNFGTQTYTCNVDHKPSNTKVDKTVERKCCVECPPCPAPPVAGPSVFLFPPKPKDTLMISRTPEVTCVVVDVSHEDPEVQFNWYVDGVEVHNAKTKPREEQFNSTFRVVSVLTVVHQDWLNGKEYKCKVSNKGLPAPIEKTISKTKGQPREPQVYTLPPSREEMTKNQVSLTCLVKGFYPSDIAVEWESNGQPENNYKTTPPMLDSDGSFFLYSKLTVDKSRWQQGNVFSCSVMHEALHNHYTQKSLSLSPGKGGGGSGGGGSGGGGSHTPGNSKPTRTPRR
light: not shown
Turning to B1, the Kd in assay [1] amounted to 69.7 nM.

B2: bsAb with heavy chain polypeptide SEQ ID NO: 3 and light chain SEQ ID NO: 12 (bispecific antibody, human IgG2, kappa)
heavy: QVQLQESGPGLVKPSETLSLTCTVSGGSVSSGDYYWTWIRQSPGKGLEWIGHIYYSGNTNYNPSLKSRLTISIDTSKTQFSLKLSSVTAADTAIYYCVRDRVTGAFDIWGQGTMVTVSSASTKGPSVFPLAPCSRSTSESTAALGCLVKDYFPEPVTVSWNSGALTSGVHTFPAVLQSSGLYSLSSVVTVPSSNFGTQTYTCNVDHKPSNTKVDKTVERKCCVECPPCPAPPVAGPSVFLFPPKPKDTLMISRTPEVTCVVVDVSHEDPEVQFNWYVDGVEVHNAKTKPREEQFNSTFRVVSVLTVVHQDWLNGKEYKCKVSNKGLPAPIEKTISKTKGQPREPQVYTLPPSREEMTKNQVSLTCLVKGFYPSDIAVEWESNGQPENNYKTTPPMLDSDGSFFLYSKLTVDKSRWQQGNVFSCSVMHEALHNHYTQKSLSLSPGKGGGGSGGGGSGGGGSEVQLVESGGGLVQPGGSLRLSCAASGFTFSSYAMSWVRQAPGKGLEWVSQISPAGGYTNYADSVKGRFTISADTSKNTAYLQMNSLRAEDTAVYYCARGELPYFRMSKVMDVWGQGTLVTVSSGGGGSGGGGSGGGGSDIQMTQSPSSLSASVGDRVTITCRASQFLSSYLAWYQQKPGKAPKLLIYGASARASGVPSRFSGSGSGTDFTLTISSLQPEDFATYYCQQYLASPATFGQGTKVEIK
light: not shown
As to B2, the Kd in assay [2] was below 0.1 nM; in assay [1] it was 0.53 nM.

B3: bsAb with heavy chain polypeptide SEQ ID NO: 4 and light chain SEQ ID NO: 12 (bispecific antibody, human IgG2, kappa)
heavy: QVQLQESGPGLVKPSETLSLTCTVSGGSVSSGDYYWTWIRQSPGKGLEWIGHIYYSGNTNYNPSLKSRLTISIDTSKTQFSLKLSSVTAADTAIYYCVRDRVTGAFDIWGQGTMVTVSSASTKGPSVFPLAPCSRSTSESTAALGCLVKDYFPEPVTVSWNSGALTSGVHTFPAVLQSSGLYSLSSVVTVPSSNFGTQTYTCNVDHKPSNTKVDKTVERKCCVECPPCPAPPVAGPSVFLFPPKPKDTLMISRTPEVTCVVVDVSHEDPEVQFNWYVDGVEVHNAKTKPREEQFNSTFRVVSVLTVVHQDWLNGKEYKCKVSNKGLPAPIEKTISKTKGQPREPQVYTLPPSREEMTKNQVSLTCLVKGFYPSDIAVEWESNGQPENNYKTTPPMLDSDGSFFLYSKLTVDKSRWQQGNVFSCSVMHEALHNHYTQKSLSLSPGKGGGGSGGGGSGGGGSEVQLVESGGGLVQPGGSLRLSCAASGFTFSSYAMSWVRQAPGKGLEWVSQISPAGGYTNYADSVKGRFTISADTSKNTAYLQMNSLRAEDTAVYYCARGELPYYQMSKVMDVWGQGTLVTVSSGGGGSGGGGSGGGGSDIQMTQSPSSLSASVGDRVTITCRASQYFSSYLAWYQQKPGKAPKLLIYGASARASGVPSRFSGSGSGTDFTLTISSLQPEDFATYYCQQYLASPATFGQGTKVEIK
light: not shown
Take B3: the Kd in assay [2] is below 0.1 nM.

B4: bsAb with heavy chain polypeptide SEQ ID NO: 2 and light chain SEQ ID NO: 12 (bispecific antibody, human IgG2, kappa)
heavy: QVQLQESGPGLVKPSETLSLTCTVSGGSVSSGDYYWTWIRQSPGKGLEWIGHIYYSGNTNYNPSLKSRLTISIDTSKTQFSLKLSSVTAADTAIYYCVRDRVTGAFDIWGQGTMVTVSSASTKGPSVFPLAPCSRSTSESTAALGCLVKDYFPEPVTVSWNSGALTSGVHTFPAVLQSSGLYSLSSVVTVPSSNFGTQTYTCNVDHKPSNTKVDKTVERKCCVECPPCPAPPVAGPSVFLFPPKPKDTLMISRTPEVTCVVVDVSHEDPEVQFNWYVDGVEVHNAKTKPREEQFNSTFRVVSVLTVVHQDWLNGKEYKCKVSNKGLPAPIEKTISKTKGQPREPQVYTLPPSREEMTKNQVSLTCLVKGFYPSDIAVEWESNGQPENNYKTTPPMLDSDGSFFLYSKLTVDKSRWQQGNVFSCSVMHEALHNHYTQKSLSLSPGKGGGGSGGGGSGGGGSEVQLVESGGGLVQPGGSLRLSCAASGFTFSSYAMSWVRQAPGKGLEWVSQISPAGGYTNYADSVKGRFTISADTSKNTAYLQMNSLRAEDTAVYYCARGELPYYRMSKVMDVWGQGTLVTVSSGGGGSGGGGSGGGGSDIQMTQSPSSLSASVGDRVTITCRASQYFSSYLAWYQQKPGKAPKLLIYGASSRASGVPSRFSGSGSGTDFTLTISSLQPEDFATYYCQQYLGSPPTFGQGTKVEIK
light: not shown
For B4, the figures for the Kd in assay [2] and in assay [1] were below 0.1 nM and 0.19 nM, respectively.
